# Data published in the DeepSol protein solubility set.
# Assay: soluble on expression in E. coli; label from the status in PepcDB or PDB records
row,Sequence,soluble on expression in E. coli
1,EHNKRVNLANAGRVSSAEGIKKLRASGVKFVWVDQSLSAQQCVFKPVEEPIDIEVGDKTLSVSSKVQRAYRSREVQHKRAKKLIAEAKGLAQKLLNQTFEGKVIQVDEIESWADDMIESVFIDSDALQCVSALRQKDSYLLEHSVNVACLLVSFGKHLGLDKDTLKQLAIGGIIHDVGKIKVDDKILHKPARLTPEEFEHMKLHQVFAGEIIVEVKGLSDVSRDVCLMHHEKLDGTGYPRGLSGDEIPIHGRMSCIVDIYDALTADRCYKKGMSSAEAFKILLSLTPFHLDPDL,not soluble
2,SERLTSPPRLMIVSDLDETMVDHHKDPENLALLRFNSLWEDAYRHDSLLVFSTGRAQTMYKKLRKEKPLLTPDVIITSVGTEIAYGNSMVPDDNWVEILNKKWDRGIVQEETSKFPELTLQGETEQRPHKLSFNIDKSKVKAVTKELSPRLEKRGVDVKFIFSGGNAFDVLAKGGGKGQALAYLLKKLKTEGKLPINTLACGDSGNDTELFTIPNVYGVMVSNAQEELLEWYAENAKDNANIIHASERCAGGITQAIGHFKLGPNLSPRDVSDFLECKADNVNPGHEVVKFFLFYERWRRGEVENCTTYTSSLKASCHPSGVFVHPSGAEKSLRDTIDELGKYYGDKKGKKFRVWTDQVLATDTTPGTWIVKLDKWEQTGDERKCCTTTVKFTSKEGEGFVWEHVQQIWSEETEIKDDSNWII,not soluble
3,MGSDKIHHHHHHMIYNDRLGEVMDLNTLIKIIEKVGRIEIEDIKITADELIINIPSAPPIVIPQTPSIKEKLAEEGIIEIKDVPELDWEPPVEKYPGYIREVQFGKPKSEGGRGKVVKIGGQRALYRFEEPQPNPPVVTFDIFDIPMPGLPKPIRQFFQDVMEDPCEWAKKCVKEFGADMITIHHISTDPKIKDKSPKEAAKLMEDLLQAVDVPFVIGGSGNPQKDPLVLEACAEVAEGDRCLLASANLELDYKKIVDAAMKYDHNVLAWSIMDPNMARDLNRKLVEAGLDPNRIVMDPTTCALGYGIEFSINAMVRLRLNGLKGDELVNMPMSSGTTNAIGAREAWMNNPEWGPREYRLPLWEITTGITMMMCGVDLFMMLNPISVKTLKEIGKTLTTKPGEVKLNTNNYEWIVSP,not soluble
4,MAHMNLLSVTTGDGGLSRYLEEVRRFPMLEPQEEYMLAQRYRKHNDLKAAHKLVTSHLRLVAKIAVGYRGYGLPIGEVISEGNVGLMKAVKRFEPERGFRLATYAIWWIKASIQEYVLRSWSLVKMGTTANQKRLFFNLRKLKSRLQALDNGDLNAEQVKEIAIQLNVTEDEVVSMNRRLGGDTSLNAPLRTKEGENSEWQDWLVDDSNNQEQTLIEQNELENRRSMLTNALDNLNEREKRIFKARRLSDIPLTLEELSSEFNISRERVRQIEMRAFEKIQNSIKASALSQNQV,not soluble
5,MKRIPIKELIVEHPGKVLILDGGQGTELENRGININSPVWSAAPFTSESFWEPSSQERKVVEEMYRDFMIAGANILMTITYQANFQSISENTSIKTLAAYKRFLDKIVSFTREFIGEERYLIGSIGPWAAHVSCEYTGDYGPHPENIDYYGFFKPQLENFNQNRDIDLIGFETIPNFHELKAILSWDEDIISKPFYIGLSVDDNSLLRDGTTLEEISVHIKGLGNKINKNLLLMGVNCVSFNQSALILKMLHEHLPGMPLLVYPNSGEIYNPKEKTWHRPTNKLDDWETTVKKFVDNGARIIGGCCRTSPKDIAEIASAVDKYS,soluble
6,MDSYGYVETLGLVTAIEAADAALKAANVTLMNCYYVKGGIVTIEVAGDVSAVTAAVDAATESAKRLGNFLSSNVIARIDSETKKILISDLGNKEKKQKIENKSVVKDTTIEKKATEKISTEEITEEIINESKNENFDEEQNKEINEKVTEIAEVYEKVENPAEKLDQNNDIQEKIEVFEIEVEKEDDEAEKLKKQYQGMKVIDLKKMVNSCKLGYTWNQIKTMPKKKLIEILIKNNKEEAQWQH,not soluble
7,MNSTFIVNFVGKATPATIKQLAAVTHENGGKWLISKVNFIEDSVAAVIKIELPADNASTVKQAFQTYPSLLVEITDADPHVHKSDAVYKVRLDANDRAGIVNEITHLLDGQGISILDMDCQRVFIAGGGGISSSLFTANVAMRLPVNIEIDDVINELEALSEDTRVTLEA,not soluble
8,MPEKKSLLEVPPELVFSGPFDHVITTYMTLTNISQSPVCFLVKTTVPNSYCVRPNRGILNIGDSKQIEVMLQPLEKVPPDAKQHKFLVQSCVAPSIDVSDLESVWKNVKPDELTYNRLVVTFVDNTDSKSNIECEICTLEFSSVVDNQIPRILQCGHSICQSCASKLAKNCVILCPFCRNETNVSSVASLPKNFALLQAIDQKTLRVPPLEIAKLRQQLSCQLSKLEEQVSKTDKSIKAVGRAQLSNLKDGREFQERKDSIVSYYASIRETINALENEAIGKLHTIADMNVSKNALLVAELSEILKHQNLKIAELKLSMEMDDVELATRSLTDSGTECAVVKPAVLDVALTFPEIDKMALLSMTTKFPSNFSTV,not soluble
9,MMKDLNLSNSLFKGYNDKHGLMICGYEWGWSKADEAAYVAGEYKLPENKIDHTFANKSLYFGEQAKKWRYDNTIKNWFEMWGHPLDENGLGGAFEKSLVQTNWAATQGNTIDNPDKFTQPEHIDNFLYHIEKLRPKVILFMGSRLADFLNNQNVLPRFEQLVGKQTKPLETVQKEFDGTRFNVKFQSFEDCEVVCFPHPSASRGLSYDYIALFAPEMNRILSDFKTTRGFK,not soluble
10,GPGSMRAEKVTVSPAGEGAAPLFVFGYGSILWKQQFEYLRALPCCVHGYKRVFYQGSTDHRGVPARPGRVVTLLTCGDPEAWVGGVAFELPVEEEKREKILAQLDDRESGGYEREEVTLYDIKTHERLHLPPGAVCLCYRATEDNPEYLGEAKDEAIAEQILSCEGLSGPNSEYLFKLAEALRKLESADQHVFAVETAALHIMKAQNVPE,soluble
11,GNIATTPGDVVYRNRMMELIQYKPATDTVHEIPIVLFPPWINKFYILDLKAQNSFIKWVTEQGFTIFVVSWINPDASYADVGMEDYIQDGFLTAIDEVKKICKVKQVNAVGYCIAGTTLSLTLSLMKQTGDKSVKSATFFTALTDFSDQGEFTPFLQDDFIDGIEEEVTREGVLRSWIMARTFSYLRSNDLIYKPAIQSYMLGETPPAFDLLYWNGDGANLPAKMAVQYLRGLCQRNEFAGEGFDLMGHTLHVRDVDVPVMAITCETDHIAAWKDCYRGVQKMGSRSKTFVVSESGHIAGIVNPPSKKKYGHYTNPDLKDD,not soluble
12,MTEQTFSIREAVPTDADQLLSVMSKIGSETPYLVMDERGMAMSTTELAENLATLYESPNNVLLVALAGEAIIGTASVSASSKKRMEHIGEIGISILKEYWGYGLGSILMEELIRWAHESHVIRRLELTVQDRNQRAIHVYKKLGFETEAIMPRGAKTDQGEFLDVHLMRLLID,not soluble
13,MGSDKIHHHHHHMIEFKEVSKRFGSTLALDKLDANFPTGKIIGLFGPNGAGKSTSIKMIAGLNRPDQGQVVIDGELPRMSKAQIAYLPEIDHLYPWMTIGQAAGFTRSFYVDWDNDKYHELLKYLNLNAEMKIGKISKGQRAKTKLLLTAARRAPYLLMDEPLSGIDILTREEIINTLVRDYREGEQTIIISTHEIAEVESLVDEVFFIDQGKIMLSGSAEEFRVERGQSLVEIMKEAFRHADQ,not soluble
14,MGSDKIHHHHHHMMKRFWFFLESYVFVWTNHEAVLLYDSLSGKGVTWKLTDPVRTIVMELMKKENLYCMELTEDDLNVPEVTEFVSEIRRNFIGDLYSQEEFRQKPLVIVPEVSVNENLENDVETMNNLELFGQKIVNNLRVVTMRLTGECSINCRYCQTVDKQIVWCRKQDNRLSYNEICRLLEQLKHTPVTLINFVGGNVLSYPFLDELLNELKKHSFGKCFYLYYKQSVDYEQIRAKLLNDPSVSIKFLIDYPVNEYAISACVALPNERVEYCFAVTSEEEFQEVSRIIDVYKLKANIYPFYTIDNLDFFEKYVFQTLEDVMALCRTKKDIFAHQLVNTHFFGTLYIDCDGKVYPNFNSKSIGTIDGYVKDWVFQEMKQGKMWHWTRDSLPACKECLYKYLCPSPSNYELVIGKPNLCHVKPWKC,not soluble
15,MSLEKQMNCNLKELKEFIDNEMLLILGQMDKPSLIFDHLYLGSEWNASNLEELQGSGVDYILNVTREIDNFFPGLFAYHNIRVYDEETTDLLAHWNEAYHFINKAKRNHSKCLVHCKMGVSRSASTVIAYAMKEFGWPLEKAYNYVKQKRSITRPNAGFMRQLSEYEGILDASKQRHNKLWRQQTDSEGHHHHHH,not soluble
16,MEIIYPPLVEEGLKYYLETTQQSLDKSTFYRSMVERGIITETGLPTQQAIENGLVKDYYEDQGLSFDDFLRIYPIFEEYDEELFQCIDGYWEIPVDMKENLASQLESGELTFEDAQQIQAYLEDR,not soluble
17,MSLRLNDWQLAFEAYLLGEQAQARAVLQDSLIGGPTLDVETGLAIYHNAYMARLQEVMGSDFPAIRHWLGDAEFQALTQAYIRQCPSRHFSLRWLGQGFAEFILGHLVPEQGAPLAELARLEWAFTLAFDAADAQVLTVAAMAGLDVEQWPQLQLRLAPCVQWLDCRYNSVAQWRAVKEQADFPRSALLDQQQLCLVWRADRVCRYRSLPAEEATALRGMIEQRWNFAELCVGLAVTYAEGAPLQAVTWLKQWVEDGLVMRSESEGHHHHHH,not soluble
18,MGSDKIHHHHHHMKITKATDITLNDSCYLIYGNPGFGKTSVLKYIPGKTLVIDIDKSSKVLSGCENISIAEVDTHKIWDEWLNVVKELLKGAAEPFDTIVVDNVSELFRACLANLGREGKNHRVPSQADYQRVDFTILDSLRALLQLKKRIVFTAWETSDQWTDENGMIYNRAMPDIRSKILNNFLGLTDVVARLVKKTTEDGEEVRGFILQPSASVYAKNRLDDRKGCKVDELFTTELPS,not soluble
19,MSGATPVFTEINQIQGTGDKSPLISSGFISDDEYFVQGVVTARGESLLKGFYLQGLNDDFDPNSSEGIFVSTGSAPSLEIQPGALVCVKAKVQEYYGQTQLKPDTNNFLVQGHQAPVSVTELTINENETLAQALERHEGMQVKLTSHSDLRITRNFSFDYASKRNNMVLSHGEPLFKPTQLFAAESPEAIQLAEENAKRQITIESDNKAPNGEVPYFPDFATDSNQDGSADSYLRLGARIEGLEGVIAYSYGQYRLVTTNTISQENIITQAFDEDGDTLFNVERTDEPSIDDADLTITSFNVLNYFTSVAAGGLEHHHHHH,not soluble
20,HHHHHHGSMTIKPLRKAVFPVAGLGTRFLPATKAMPKEMLPVVDRPLIQYAVDEAVEAGIEQMIFVTGRGKSALEDHFDIAYELEATMAARGKSLDVLDGTRLKPGNIAYVRQQEPMGLGHAVWCARDIVGDEPFAVLLPDDFMFGQPGCLKQMVDAYNKVGGNLICAEEVPDDQTHRYGIITPGTQDGVLTEVKGLVEKPAPGTAPSNLSVIGRYILQPEVMRILENQGKGAGGEIQLTDAMQRMIGDQPFHGVTFQGTRYDCGDKAGFIQANLAVALSRPDLEPAVRAFAVKALG,soluble
